The values below come from US20190328677A1.

Assay [1] deals with human Fn14 on cells (MEF Fn14-V5, U87-Luc/GFP, 231-Luc) (human). Put plainly: human U87 glioma cells treated with fluorescent particles (FIG. 3C; legend says flow cytometry).
Assay [2] concerns the target Fn14 extracellular domain (recombinant, Cell Sciences). Put plainly: SPR (Biacore 3000), Fn14 extracellular domain on CM5 chip, equilibrium fit, per nanoparticle. For orientation: Surface plasmon resonance follows binding to a sensor surface in real time, without labels.
Assay [3] addresses human Fn14 on cells (MEF Fn14-V5, U87-Luc/GFP, 231-Luc) (human). Description: flow cytometry, MEF Fn14-V5 cells expressing human Fn14. A general note: A flow cytometer gives signals particle by particle.
Assay [4] has the same target. Put plainly: flow cytometry, human U87-Luc/GFP GBM cells.
Assay [5] concerns the target Fn14 extracellular domain (recombinant, Cell Sciences). Put plainly: SPR (Biacore), ratio of KD against free ITEM4.
The target is the same in assay [6]. Put plainly: SPR (Biacore 3000), Fn14 extracellular domain on CM5 chip, equilibrium fit.
For assay [7] the target is unchanged. Description: SPR (Biacore), Fn14 extracellular domain on chip, binding isotherm of RUeq, per nanoparticle.
Assay [8] has the same target. Description: SPR (Biacore), Fn14 chip, nanoparticles first incubated with mouse blood serum.
Assay [9] concerns the target human Fn14 on cells (MEF Fn14-V5, U87-Luc/GFP, 231-Luc) (human). Put plainly: flow cytometry, 231-Luc cells.
The target is the same in assay [10]. Put plainly: cell-based or functional assay.

In assay [1], “BPN conjugated with ITEM4 at high density” gave a fold increase in binding to glioma cells against non-targeted BPN of 4.5 fold. As to “CNP-ITEM4 (high): 100 nm PEG-coated polystyrene nanoparticles decorated with a high density of ITEM4”, the Kd in assay [2] came to 0.024 nM. The fold cellular uptake against CNP in [3] is 2.5 fold. In assay [4], this substance displayed a fold cellular uptake efficiency against CNP alone of 3.5 fold. Further, the fold higher binding affinity than ITEM4 alone in assay [5] stood at 65 fold.

On to “CNP-ITEM4 (low): 100 nm PEG-coated polystyrene nanoparticles decorated with a low density of ITEM4”, for which, in assay [2], the Kd is 0.106 nM. The fold cellular uptake efficiency against CNP alone in assay [4] came to 1.25 fold. Moreover, the fold higher binding affinity than ITEM4 alone in assay [5] is 15 fold. With “ITEM4 monoclonal antibody (Fn14-specific monoclonal antibody)”, in assay [6], the Kd stood at 1.62 nM. Consider PLGA-PEG1%-ITEM41% nanoparticles, for which the Kd in assay [7] amounted to 3.2 nM. Take PLGA-PEG5%-ITEM41% nanoparticles: the Kd in assay [7] is 2.4 nM. Same read-out and setting: in the case of PLGA-PEG10%-ITEM40.1% nanoparticles it was 26.5 nM. Take “PLGA-PEG10%-ITEM41% nanoparticles (optimized DART nanoparticles)”: the values for the Kd in assay [8] and in [7] were 6.1 nM and 1.9 nM, respectively. The substance also returned a fold cellular association efficiency against PLGA-PEG in [9] of 2.5 fold. In addition, the IC50 (as paclitaxel), viability of 231-Luc cells by MTS assay, 2 h exposure then 24 h in fresh medium (in vitro clearance study), paclitaxel-loaded particles in assay [10] is 130 nM.

In the case of PLGA-PEG10%-ITEM410% nanoparticles, in assay [7], the Kd came out at 2.6 nM.

“thiol-modified ITEM4 (ITEM4-SH) (antibody)”: the Kd in assay [6] was 1.57 nM.

Usually Kd stands for the concentration at which binding is half-saturated.
